The target of experiment [1] is cynomolgus monkey CCR8 (comprising threonine at position four) (cynomolgus monkey). In words: KinExA, 293T cells expressing cynomolgus CCR8. (In general: Kinetic exclusion samples the free partner from a solution-phase mixture.)
Experiment [2] shares this target. In words: flow cytometry, primary cynomolgus Tregs (PBMC, CD4+CD25+CD127- gate). A general note: In flow cytometry, cells or beads pass a laser one at a time.

Values joined by “and” are separate entries in the source; they are usually repeats but may differ in a detail not shown here. Equal entries are not always repeated.

Sequence of cynomolgus monkey CCR8 (comprising threonine at position four) (cynomolgus monkey) (O97665 other isoform, or with tags, fused parts or gaps): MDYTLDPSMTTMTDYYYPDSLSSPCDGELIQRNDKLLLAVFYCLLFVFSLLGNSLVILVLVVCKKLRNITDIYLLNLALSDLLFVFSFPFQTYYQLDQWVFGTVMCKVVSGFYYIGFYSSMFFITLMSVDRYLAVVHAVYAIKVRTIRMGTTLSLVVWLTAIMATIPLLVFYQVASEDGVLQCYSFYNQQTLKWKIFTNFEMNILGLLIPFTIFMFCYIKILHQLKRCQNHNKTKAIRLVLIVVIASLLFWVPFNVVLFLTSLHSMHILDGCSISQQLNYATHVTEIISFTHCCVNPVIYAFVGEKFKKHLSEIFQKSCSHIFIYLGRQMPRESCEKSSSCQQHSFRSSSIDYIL

B1: Antibody 2 IgG2 (antibody, V domains shown)
VH: QVQLVESGGGVVQPGRSLRLSCAASGFTFSNYGMHWVRQAPGKGLEWVAVISYDGSNKFYADSVKGRFTISRDNSKKTLYLQMSSLRVEDTAVYYCARAGGIGRFDYWGQGTLVTVSS
VL: DFVMTQTPLSLSVTPGQPASISCKYSQSLLHSDGKTYLFWYLQKPGQPPHLLIYEVSNRFSGVPDRFSGSGSGTDFTLKISRVEAEDVGLYYCMQTLKLPLTFGGGTKVEINR
As for B1, in experiment [1], the equilibrium dissociation constant (Kd) (as a rule, a measure of binding affinity in units of concentration) was above 50 nM. Besides, the CCR8+CD127-CD25+CD4, % positive in experiment [2] is 8.5% and 17.9%.
